In paper PMC4347215:

Target: recombinant CA/09 NA, thrombin-cleaved (His-tag depleted) (influenza A virus A/California/07/2009 (H1N1)pdm09) (UniProt C3W5S3)
Assay: crystal structure

recombinant CA/09 NA, thrombin-cleaved (His-tag depleted) (from UniProt C3W5S3 82-467) (enzyme)
stoichiometry N: 4
